{
  "source": "paper PMC10937380",
  "target": "preformed E3mUU–UFC1–UFM1 complex (UniProt O94874)",
  "test": "ITC; MicroCal PEAQ-ITC, 25 °C, 25 mM HEPES pH 7.5, 200 mM NaCl, 0.44 mM TCEP; 13 injections (19 for UFBP1 UFIM–UFM1)",
  "data": [
    {"substance": "CDK5RAP3 (from UniProt Q96JB5 1-506) (natural protein)", "values": [
      {"measurement": "Kd", "result": 0.5, "unit": "µM"}
    ]}
  ]
}
